Test results from patent EP4793641A1, “NOVEL METHOD FOR ANALYZING BIOMOLECULAR INTERACTIONS” (Kyoto University, priority 2023, dated 2025).
Non-standard residues stand in square brackets, D forms with d. Residues, ends and D or L forms follow the SMILES beside them. Primed or numbered codes have the meaning given here. No end group written: not given here. *: point of attachment. 5FAM = O=C1OC2(c3ccc(O)cc3Oc3cc(O)ccc32)c2ccc(C(=O)*)cc21; Me′ = methyl group capping the C-terminus; F(-Me) = not defined here; Acm = CC(=O)NC*

Tests used:
[1] = target: T1, interactions between Talin 1 (TLN1) and integrin subunit beta (ITGB) (Homo sapiens, UniProt Q9Y490); assay: Flip-flop detection mechanism on DNA origami (LgBit/SmBit luminescence), inhibitor screening; assay type: biochemical; details: inhibition of binding between TLN1 and ITBG
T1 construct: LgBit or SmBit (N-terminal of the HaloTag); made in house
In short: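 Peptide inhibitors (13-mer, modified from ITGB3 intracellular region) tested in flip-flop system: HaloTag fusions on DNA origami carrying TLN1 or ITGB1 subunits with LgBit/SmBit at N-termini. Inhibiting TLN1–ITGB binding lets LgBit-SmBit assemble, giving luminescence; IC50 calculated from this signal.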

Talin 1 (TLN1) = Talin 1 (TLN1) (UniProt Q9Y490); assay: flip-flop luminescence detection on DNA origami, inhibition of the TLN1-ITGB complex
Chain of Talin 1 (TLN1) (Q9Y490 1-405): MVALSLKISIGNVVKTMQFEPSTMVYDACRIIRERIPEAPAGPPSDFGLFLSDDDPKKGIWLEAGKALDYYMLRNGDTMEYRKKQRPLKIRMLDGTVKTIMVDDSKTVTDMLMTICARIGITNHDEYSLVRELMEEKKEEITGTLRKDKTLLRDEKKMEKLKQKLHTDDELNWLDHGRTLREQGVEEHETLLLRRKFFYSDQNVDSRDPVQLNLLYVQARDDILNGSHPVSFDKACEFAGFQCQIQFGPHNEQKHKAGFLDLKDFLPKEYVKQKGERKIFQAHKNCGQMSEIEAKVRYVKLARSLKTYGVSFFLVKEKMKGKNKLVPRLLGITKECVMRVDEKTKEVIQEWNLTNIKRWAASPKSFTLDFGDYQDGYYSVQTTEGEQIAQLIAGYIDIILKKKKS

Inhibitory activity [1]	IC50 (Talin 1 (TLN1)) [mM]	Molecule	further results
		CSCC[C@H](NC(=O)[C@H](CCCCN)NC(=O)[C@H](CCC(=O)O)NC(=O)[C@H](CCCCN)NC(=O)[C@H](CCC(=O)O)NC(=O)[C@H](Cc1ccccc1)NC(=O)[C@H](CCCCN)NC(=O)[C@@H](N)CCSC)C(=O)N[C@@H](CC(N)=O)C(=O)N[C@@H](CS)C(=O)N[C@@H](CCCCN)C(=O)N[C@@H](Cc1c[nH]c2ccccc12)C(=O)N[C@@H](CCSC)C(=O)N[C@H](C(=O)O)[C@@H](C)O [FIYM48] (H-MKFEKEKMNCKWMT-OH)	IC50 ([1]; µM, read-out: Inhibitory activity): 292 µM
no inhibition		CSCC[C@H](NC(=O)[C@H](CCCCN)NC(=O)[C@H](CCC(=O)O)NC(=O)[C@H](CCCCN)NC(=O)[C@H](CCC(=O)O)NC(=O)[C@H](Cc1ccccc1)NC(=O)[C@@H](N)CCCCN)C(=O)N[C@@H](CC(N)=O)C(=O)N[C@@H](CSCNC(C)=O)C(=O)N[C@@H](CCCCN)C(=O)N[C@@H](Cc1c[nH]c2ccccc12)C(=O)N[C@@H](CCSC)C(=O)N[C@H](C(=O)O)[C@@H](C)O [FIYM38] (H-KFEKEKMNC(Acm)KWMT-OH)	
no inhibition		CSCC[C@H](NC(=O)[C@H](Cc1c[nH]c2ccccc12)NC(=O)[C@H](CCCCN)NC(=O)[C@H](CS)NC(=O)[C@H](CC(N)=O)NC(=O)[C@H](CCSC)NC(=O)[C@H](CCCCN)NC(=O)[C@H](CCC(=O)O)NC(=O)[C@H](CCCCN)NC(=O)[C@H](CCC(=O)O)NC(=O)[C@H](Cc1ccccc1)NC(=O)[C@@H](N)CCCCN)C(=O)N[C@@H](CCCNC(=N)N)C(=O)O [FIYM12] (H-KFEKEKMNCKWMR-OH)	
no inhibition		CSCC[C@H](NC(=O)[C@H](CCCCN)NC(=O)[C@H](CCC(=O)O)NC(=O)[C@H](CCCCN)NC(=O)[C@H](CCC(=O)O)NC(=O)[C@H](Cc1ccccc1)NC(=O)[C@H](CCCCN)NC(=O)[C@H](C)NC(=O)[C@H](Cc1ccccc1)NC(=O)[C@@H](N)CCC(=O)O)C(=O)N[C@@H](CC(N)=O)C(=O)N[C@@H](C)C(=O)N[C@@H](CCCCN)C(=O)N[C@@H](Cc1c[nH]c2ccccc12)C(=O)N[C@@H](CC(=O)O)C(=O)N[C@H](C(=O)O)[C@@H](C)O [FIYM5] (H-EFAKFEKEKMNAKWDT-OH)	
no inhibition		CSCC[C@H](NC(=O)[C@H](CCCNC(=N)N)NC(=O)[C@H](CCC(=O)O)NC(=O)[C@H](CCCCN)NC(=O)[C@H](CCC(=O)O)NC(=O)[C@H](Cc1ccccc1)NC(=O)[C@@H](N)CCCNC(=N)N)C(=O)N[C@@H](CC(N)=O)C(=O)N[C@@H](CS)C(=O)N[C@@H](CCCCN)C(=O)N[C@@H](Cc1c[nH]c2ccccc12)C(=O)N[C@@H](CCSC)C(=O)N[C@H](C(=O)O)[C@@H](C)O [FIYM30] (H-RFEKERMNCKWMT-OH)	
no inhibition		CSCC[C@H](NC(=O)[C@H](CCCCN)NC(=O)[C@H](CCC(=O)O)NC(=O)[C@H](CCCCN)NC(=O)[C@H](CCC(=O)O)NC(=O)[C@H](C)NC(=O)[C@@H](N)CCCCN)C(=O)N[C@@H](CC(N)=O)C(=O)N[C@@H](C)C(=O)N[C@@H](CCCCN)C(=O)N[C@@H](C)C(=O)N[C@@H](CC(=O)O)C(=O)N[C@H](C(=O)O)[C@@H](C)O [FIYM2] (H-KAEKEKMNAKADT-OH)	
	0.211	K[F(-Me)]EKEKMNCKWMT (reading uncertain; also: printed as KF(-Me)EKEKMNCKWMT) [FIYM19]	
	1.85	KYEKEKMNAKWDT [FIYM50]	
	42	EFEKEKMNCKWMT [FIYM53]	
	1.07	KFEKEKMNC(Me)KWMT [FIYM44]	
	0.0412	Ace-KFEKEKMNCKWMT-{Me′} [FIYM15]	
	0.0381	5FAM-KFEKEKMNCKWMT [FIYM21]	
	1.04	RFEKEKMMCKWMT [FIYM31]	
	1.83	KYEKEKMNCKWMT [FIYM51]	
	8.13	DFEKEKMNCKWMT [FIYM52]	
